Assay: yeast display, Sf9 membrane polyspecificity reagent, FACS + sequencing; frameworks hold sequencing errors
In short: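 A nanobody's polyreactivity label depends on the gate it was sorted from. Yeast display cells were stained with 10% biotinylated, detergent-solubilized Sf9 membrane reagent for 1 hour at 4 °C, enriched on streptavidin microbeads and sorted by FACS. The low and high (top ~1%) gates were set on anti-HA fluorescence for expression and streptavidin fluorescence for reagent binding.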

| Sequence | polyreactivity (PSR sort gate) |
| --- | --- |
| QVQLVESGGGLVQAGGSLRLSCAASGSIFYYNMGWYRPAPGKERELVAAISGGGGSTFYADSVKGRFTISRDNAKNTVYLQMNSLKPEDTAVYYCAARATTRRKKRMDYWGQGTQVTVSS | high polyreactivity |
| QVQLVESGGGLVQAGGSLRLSCAASGSIFYYYAMGWSRQAPGKERELVAGINSGDSTYYADSVKGRFTISRDNAKNTVYLQMNRLKPEYTAVYYCAASADWWYEYWGQGTEVTVSS | low polyreactivity |
| QVQLVESGGGLVQAGGSLRLSCAASGSIFYYYAMGWYRQAPGKERELVAAINGGDGRTYYADSVKGRFTISRDNGKNTVYLQMNSLKPEDTAVYYCAADWPGYSAYYYWGQGTQVTVSS | low polyreactivity |
| QVQLVESGGGLVQAGGSLRLSCAASGSIFYYYAMGWYRQAPGKERELVAAITSGGSTYYADSVKGRFTISRDNAKNTVYLQMNSLKPEDTAVYYCAAYGYYRGYPFHWYDYWGQGTQVTVSS | high polyreactivity |
| QVQLVESGGGLVQAGGSLRLSCAASGSIFYYYAMGWYRQAPGKERELVAAITVSGGRTYYADSVKGRFTISRDNAKNTVYLQMNSLKPEATAVYYCAAQIYGKYDYWGQGTQVTVSS | low polyreactivity |
| QVQLVESGGGLVQAGGSLRLSCAASGSIFYYYAMGWYRQAPGKERELVADISRSGTSTYYADSVKGRFTISRDNAKNTVYLQMNSLKPEDTAVYYCNVLRVKSITYLMDYWGQGTQVTVSS | high polyreactivity |
| QVQLVESGGGLVQAGGSLRLSCAASGSIFYYYAMGWYRQAPGKERELVADITRDCGTTYYADSVKGRFTISRDNAKNTVYLQMNSLKPEDTAVYYCNARSIVFDWSAGRAKMDYWGQGTQVTVSS | low polyreactivity |
| QVQLVESGGGLVQAGGSLRLSCAASGSIFYYYARGWYRQAPGKERELVAAITSGGRTKYADSVKGRFTISRDNAKNTVNLQMNSLKPEDTAVYYCNARNYGKYRTNDYWGQGTQVTVSS | high polyreactivity |
| QVQLVESGGGLVQAGGSLRLSCAASGSIFYYYSMGWYRQAPGKERELVATISSTTTTYADSVKGRFTISRDNPINTVYLNMNSMKPEDTAVYYCSFDYWGHGTQVTVSS | low polyreactivity |
| QVQLVESGGGLVQAGGSLRLSCAASGSIIDLNAMGWYRKAHGKERELVAAISSGGITYYADSVKGRFTISRDNAKNTVYLHMNSLKPEDTAVYYCAARYNHYFSLYDYWGQGTQVTVSS | high polyreactivity |
| QVQLVESGGGLVQAGGSLRLSCAASGSIIDYNAMGWYRQAPGKERELVAAIDWSGSSTYYADSVKGRFTISRDNAKNTVYLQMNSLKPEDTAVYYCNALAYYGMDYWGQGTQVTVSS | low polyreactivity |
| QVQLVESGGGLVQAGGSLRLSCAASGSIIFAYAMGWYRQAPGKERELVAAITTGVSTNYADSVKGRFTISRDNAKNTVYLQMNSLKPEDTAVYYCNADVDYGFDAGVAVQVVIHDYWGQGTQVTVSS | low polyreactivity |
| QVQLVESGGGLVQAGGSLRLSCAASGSIIFTNTMGWYRQAPGKERELVAAITSGGSTYYADSVKGRFTISRDNAKNTVYLQMNSLKPEDTAVYYCAAAISYYGKYYRLDYWGQGTQVTVSS | low polyreactivity |
| QVQLVESGGGLVQAGGSLRLSCAASGSIIFVYAMGCYRQAPGKERELVAGINSSGTSTYADSVKGRFTISRDNAKNTVYLQMNSLKPEDTAVYYCAARWFYYRWAYDYWGQGTQVTVSS | low polyreactivity |
| QVQLVESGGGLVQAGGSLRLSCAASGSIIGIYAMGWYRQAPGKEREMVAAINRGGSTYYADSVKGRFTISRDNAKNTVYLQMNSLKPEDTAVYYCSASPPYNTEFDYWGQGTQVTVSS | low polyreactivity |
| QVQLVESGGGLVQAGGSLRLSCAASGSIIGTYAMGWYRQAPGKERELVAAISSSGGRTYYADSVKGRFTISRDNAKNTVYLQMNILKTEYTAVYYCNTRPGTVFRAGGDYWGQGTQVTVSS | high polyreactivity |
| QVQLVESGGGLVQAGGSLRLSCAASGSIIGVNAMGWYRQAPGKERELVAAMSSTGGSTYYADSVKGRFSISRDNAKNTVFLQMNRLKPEDTAVYYCHTDYSKSIGDGYAGFDYWGQGTQVTVSS | low polyreactivity |
| QVQLVESGGGLVQAGGSLRLSCAASGSIIHFYAMGWYRQAPGKERELVAAITSGTSTYYADSVKGRFTISRDNAKNTVYLQMNSLKPEDTAVYYCAAEASHYYYNAYPSYGGSDYWGQGTQVNVSS | low polyreactivity |
| QVQLVESGGGLVQAGGSLRLSCAASGSIIILYAMGWYRQAPGKERELVAAISLRGGRTYYADSVKGRFTISRDNAKNTVYLQMNSLKPEVTSVYYCATPVTNGFDYWGQGTQVTVSS | high polyreactivity |
| QVQLVESGGGLVQAGGSLRLSCAASGSIIKRNAKGWYRQAPGKERELVASISSGGSTKYADSVKGRFTISRDNAKNTVYLQMNSLKPEDTAVYYCAKRSSQTRRAYDYWGQGTQVTVSS | low polyreactivity |
| QVQLVESGGGLVQAGGSLRLSCAASGSIINIYAMGWYRQAPGKERELVATITGIADSTYYADSVKGRFTISRDNAQNSVYLQMNSLKPEETAVYFCAADKYVAEYDYWGQGSQVTVSS | low polyreactivity |
| QVQLVESGGGLVQAGGSLRLSCAASGSIIPLYAMGWYRQAPGKERELVAAISRRGGSTYYADSVKGRFTISRDNAKNTVYLQMNSLKPEDTAVYYCSVDSPSPSRGPRFYYWGQGTQVTVSS | high polyreactivity |

| Sequence | polyreactivity (PSR sort gate) |
| --- | --- |
| QVQLVESGGGLVQAGGSLRLSCAASGSIIRRYAMGWYRQAPGKERELVAAISSGGSTYYADSVKGRFTISRDNAKNTVYLEMNSLKPVDTAVYYCAAAQRVSWLFGYWGQGTQVTVSS | high polyreactivity |
| QVQLVESGGGLVQAGGSLRLSCAASGSIISAYVMGWYRQAPGKERELVAAITRSGGSTYYADSVKGRFTISRDNAKNTVYLQMNSLTPEDTAVYYCAAKSIIRPYAPRRDDMDYWGQGTQVTVSS | low polyreactivity |
| QVQLVESGGGLVQAGGSLRLSCAASGSIISGYAMGLDRQARGKERDLVAAISSGGRTKYADSVKGRFTISRDNAKNTVYLQMNSLKPEDTAVYYCNVSYLVYRWIFGWSLDYWGQGTQVTVSS | low polyreactivity |
| QVQLVESGGGLVQAGGSLRLSCAASGSIISSNAMGWYRQAPGKEREMVAAITWSGGSTYYADSVKGRFTNSRDNAKNTVYLQMNSLKPEDTAVYYCAADQWRYDGSFTGYGYWGQGTQVTVSS | low polyreactivity |
| QVQLVESGGGLVQAGGSLRLSCAASGSIITHNTMGWYRQAPGKERELVDSIDSGASTNYADSVKGGFTISRDNAKNTVYLQMNSVKPEDTAVYYCAADVAKFRYRDDYWGQGTQVTVAS | low polyreactivity |
| QVQLVESGGGLVQAGGSLRLSCAASGSIITWNAMGWYRQAPGKERELVAALDWDGGSTYYADSVKGRFTISRDNAKNTVYFQMNRLKPEDTAVYYCAATYGWYTGRYPSGHYYYWGQGTQVTVSS | low polyreactivity |
| QVQLVESGGGLVQAGGSLRLSCAASGSIIVRYAMGWYRQAPGKERELVAAISWSGGRTYYADSVKGRFTISRDNAKNTVYLQMNSLKPEDTAVYYCAADSSVRYRDTEDYWGQGTQVTVSS | low polyreactivity |
| QVQLVESGGGLVQAGGSLRLSCAASGSIIVRYAMGWYRQAPGKERELVAAISWSGGRTYYADSVKGRFTISRDNAKNTVYLQMNSLKPEDTAVYYCAKRQGGRKYVRYEYDSWGQGTQVTVSS | low polyreactivity |
| QVQLVESGGGLVQAGGSLRLSCAASGSIIVYNTMGWYRQAPGKERELVAAITVRDDSTYYADSVKGRFTISRDYAKNTVYLQMNSLNPEDTAVYYCNARGYFLIGRDYWGQGTQVTVSS | low polyreactivity |
| QVQLVESGGGLVQAGGSLRLSCAASGSIIWLYAMGWYRQAPGKERELVAAISSGGSTYYADSVKGRFTISRDNAKNTVYLQMNSLKPEDTAVYYCAATYSSFRRYPGAHYRFGYWGQGSQVTVSS | high polyreactivity |
| QVQLVESGGGLVQAGGSLRLSCAASGSIIWRNTMGWYRQAPGKESELVARITGRGGRTNYADSVKGRFTISRDNAKNTVYLQMNSLKPEDTAVYYCAAAYPSVAYSYRYDYWGQGTQVTVSS | high polyreactivity |
| QVQLVESGGGLVQAGGSLRLSCAASGSIIWYYAMVWYRQAPGIERELGAAMTGTGGNTYYADSVKGRFTLSRDNAKNTVYLQMNSLKPEDTAVYYCDVRAYPSYPRGVYAYYYWGHGTQVTVSS | high polyreactivity |
| QVQLVESGGGLVQAGGSLRLSCAASGSIIYANAMGWYRQAPGKEREFVATITDSGAITYYADSVKGRFTISRDNAKNTVYLQMISLKPEDTAVYYCNKDLVVYSVPTHDYDYWGQGTQVTVSS | low polyreactivity |
| QVQLVESGGGLVQAGGSLRLSCAASGSIIYAYAMGWYRQAPGKERELVAGIRDGGSTYYADSVKCRFTISRDNAKNTVYLQMNSLKPEDTAVYYCAAGPRIRDDYWGQGTQVTVSS | low polyreactivity |
| QVQLVESGGGLVQAGGSLRLSCAASGSIIYGYAMGWYRQAPGKERELVASISSGGSTNYADSVKGRFTISRDNAKNTVYLQMNSLKPEDTAVYYCAAYFQRSGFSFRLRGQGTQVTVSS | high polyreactivity |
| QVQLVESGGGLVQAGGSLRLSCAASGSIIYRNAMGWYRQAPGKERELDAAISYSGTSTNYADSVKGRFTISRDNAKNTVYLQMNSLKPEDTAVYYCAARGFPHRRHSLYDYWGQGTHVTVSS | low polyreactivity |
| QVQLVESGGGLVQAGGSLRLSCAASGSILAAYAKGWYRQAPGKERELVAAISLDDGSTYYADSVKGRFTISRDNAKNTVYFQMNSLKPVDTAVYYCAADYYVRSQLLYATSGNYWGQGTQVTVTS | high polyreactivity |
| QVQLVESGGGLVQAGGSLRLSCAASGSILAGYAMGWYRQAPGKERELVAAITGGYVRSYYADSVKGRFTISRDNAKNTDYLQMNSLKPEDTAVYYCAATWGSVQKGTYYYWGQGTQVTVSS | low polyreactivity |
| QVQLVESGGGLVQAGGSLRLSCAASGSILAINAMGWYRQAPGKERELVAAINWSRGSTFYADSVKGRFTISRDNAKNTVYLQMNSLKPEDTAVYYCNVEWTDSERGDYYVDYDYWGQGTQVTVSS | low polyreactivity |
| QVQLVESGGGLVQAGGSLRLSCAASGSILARYAMGWYRQAPGKERELVAAISYNGGSTYYADSVKGRFTISRDNAKNTVYLQMNSRKPEDTAVYYCAKAYDTTLTYNYWGQGTQVTVSS | low polyreactivity |
| QVQLVESGGGLVQAGGSLRLSCAASGSILASYAMGWYRQAPGKERELVAAINRGGRTKYADSVKGRFTISRDNAKNTVYLQMNSLKPEDTAVYYCAKSDSQYEGDGYWGQGTQVTVSS | high polyreactivity |

— the nanobody polyreactivity screen of Harvey et al. (2022)
